In patent US20230165967A1 (TAE LIFE SCIENCES, published 2023):
Like-named read-outs stand apart in the source and are kept apart here.

T1: recombinant human soluble extracellular domain (ECD) of Trop2 (human, UniProt P09758 27-274)
T1 construct: extracellular domain; Bought protein
T1 sequence (looked up): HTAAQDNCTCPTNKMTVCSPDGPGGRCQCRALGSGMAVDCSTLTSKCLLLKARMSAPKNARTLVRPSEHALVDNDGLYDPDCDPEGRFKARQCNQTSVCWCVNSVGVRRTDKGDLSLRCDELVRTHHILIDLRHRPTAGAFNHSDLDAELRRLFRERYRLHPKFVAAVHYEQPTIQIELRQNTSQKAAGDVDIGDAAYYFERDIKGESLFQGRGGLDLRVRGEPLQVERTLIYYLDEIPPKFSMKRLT

T2: FcγRIIa (CD32) (Sino Biological, cat #10374-H08H) (UniProt P12318 34-218)
T2 sequence (looked up): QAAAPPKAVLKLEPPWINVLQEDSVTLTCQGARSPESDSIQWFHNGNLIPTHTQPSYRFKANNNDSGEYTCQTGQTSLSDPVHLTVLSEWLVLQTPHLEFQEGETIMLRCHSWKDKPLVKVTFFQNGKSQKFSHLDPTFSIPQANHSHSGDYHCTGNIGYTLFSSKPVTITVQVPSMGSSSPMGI


Experiments:
[1] = molecular target: T3, recombinant human FcRn (Sino Biological) (human, UniProt P55899 24-297; P61769 21-119); assay: ELISA at pH 6.0: plate coated with recombinant human FcRn, antibody titrated, HRP goat anti-human Fc, OD650
Method: (§1) FcRn binding was evaluated using an enzyme linked immunoassay (ELISA). Briefly, 96-well ELISA plates were coated with of recombinant human FcRn (Sino Biological, Inc, Beijing, China) in 1×PBS (pH 6.0) coating buffer. Subsequently, the plates were washed and blocked with ELISA blocking buffer. […] After washing to remove unbound antibodies, the bound antibodies were detected with horseradish peroxidase (HRP) conjugated goat anti-human Fc-specific polyclonal antibody (Jackson ImmunoResearch, West Grove, Pa.). After washing to remove unbound detection antibody, a slow kinetic substrate solution of tetramethylbenzidine (TMB) was added to the wells where color develops in proportion to the amount of testing samples. The optical density (OD) of the color was measured at 650 nm and was used for determination of the amount of testing samples bound to FcRn. Detectable binding of antibodies over the range of test concentrations was analyzed using the one-site binding, nonlinear regression analysis with GraphPad Prism.

[2] = molecular target: T4, recombinant human soluble ECD of CD64/FCGRIA (human, UniProt P12314 16-292); assay: ELISA: plate coated with recombinant human CD64/FCGRIA ECD, antibody titrated, HRP goat anti-human Fc, OD650
T4 construct: extracellular domain; also called FcγRI
Method: (§2) FcγRI binding was evaluated using an enzyme linked immunoassay (ELISA). Briefly, 96-well ELISA plates were coated with recombinant human soluble ECD of CD64/FCGRIA (Sino Biological, Inc. Beijing, China) in 1×PBS (pH7.4) coating buffer. Subsequently the plates were washed and blocked with ELISA blocking buffer. […] After washing to remove unbound antibodies, the bound antibodies were detected with horseradish peroxidase (HRP) conjugated goat anti-human Fc-specific polyclonal antibody (Jackson ImmunoResearch, West Grove, Pa.). After washing to remove the unbound detection antibody, a slow kinetic substrate solution of tetramethylbenzidine (TMB) was added to the wells where color develops in proportion to the amount of testing samples. The optical density (OD) of the color was measured at 650 nm and was used for determination of the amount of testing samples bound to FcγRI. Detectable binding of antibodies over the range of test concentrations was analyzed using the one-site binding, nonlinear regression analysis with GraphPad Prism.

[3] = molecular target: T5, recombinant human soluble ECD of hCD16a/FCGRIIIA (human, UniProt P08637 17-208); assay: ELISA: plate coated with recombinant human CD16a/FCGRIIIA ECD, antibody titrated 0.005-80 ug/ml, HRP goat anti-human Fc, OD650
T5 construct: extracellular domain; also called FcγRIIIa
Method: FcγRIIIa binding was evaluated using an enzyme linked immunoassay (ELISA). Briefly, 96-well ELISA plates were coated with of recombinant human soluble ECD of hCD16a/[sequence] (Sino Biological, Inc, Beijing, China) in 1×PBS (pH7.4) coating buffer. Subsequently the plates were washed and blocked with ELISA blocking buffer. […] After washing to remove unbound antibodies, the bound antibodies were detected with horseradish peroxidase (HRP) conjugated goat anti-human Fc-specific polyclonal antibody (Jackson ImmunoResearch, West Grove, Pa.). After washing to remove unbound detection antibody, a slow kinetic substrate solution of tetramethylbenzidine (TMB) was added to the wells where color develops in proportion to the amount of testing samples. The optical density (OD) of the color was measured at 650 nm and was used for determination of the amount of testing samples bound to FcγRIIa. Detectable binding of antibodies over the range of test concentrations was analyzed using the one-site binding, nonlinear regression analysis with GraphPad Prism.

[4] = molecular target: T3, recombinant human FcRn (Sino Biological); assay: ELISA at pH 6.0: plate coated with recombinant human FcRn, antibody titrated, HRP goat anti-human Fc, OD650; remark: listed apart in the source
Method: as §1

[5] = molecular target: T4, recombinant human soluble ECD of …; assay: ELISA: plate coated with recombinant human CD64/FCGRIA ECD, antibody titrated, HRP goat anti-human Fc, OD650; remark: listed apart in the source
Method: as §2

[6] = molecular target: T1, recombinant human soluble extracellular …; assay: ELISA: plate coated with recombinant human Trop2 ECD, antibody titrated 0.0003-20 nM, HRP goat anti-human Fc, OD650
Method: Target antigen binding was evaluated using an enzyme linked immunoassay (ELISA). Briefly, 96-well ELISA plates were coated with 0.05-0.075 ug of recombinant human soluble extracellular domain (ECD) of Her2/ErbB2 or EGFR or Trop2 (Sino Biologicals, Inc, Beijing, China) or 0.075 ug of recombinant human CDH3 full-length (Abnova, Taiwan). Subsequently, the plates were washed and blocked with ELISA blocking buffer. […] After washing to remove unbound detection antibody, a slow kinetic substrate solution of tetramethylbenzidine (TMB) was added to the wells where color develops in proportion to the amount of testing samples. The optical density (OD) of the color was measured at 650 nm and was used for determination of the amount of testing samples bound to the target antigen. Detectable binding of antibodies over the range of test concentrations was analyzed using the one-site binding, nonlinear regression analysis with GraphPad Prism.

[7] = molecular target: T2, FcγRIIa (CD32) (Sino Biological, cat …); assay: Sandwich ELISA: anti-His capture of His-tagged FcγRIIA mixed with titrated antibody, HRP goat anti-human IgG Fc, OD650
Method: Binding of antibodies to the low affinity FcγRIIA receptor was determined by a modified sandwich format ELISA. […] Wells were then blocked with PBS containing BSA. […] After washing with PBS, a 1:3,000 dilution of horseradish peroxidase (HRP)-labeled goat anti-hIgG Fc, JacksonImmunoResearch) in PBS-T plus 1% BSA was added to detect His-tag captured FcγRIIA and Mab complexes. The results were visualized by the addition of tetramethylbenzidine (TMB) and the optical density (OD) measured at 650 nm. Data representing detectable binding of antibodies to FcγRIIA and captured by anti-his tag Abs over the range of Fc variant test concentrations was analyzed by one-site binding nonlinear regression analysis using GraphPad Prism software.

[8] = molecular target: T5, recombinant human soluble ECD of …; assay: ELISA: plate coated with recombinant human CD16a/FCGRIIIA ECD, antibody titrated 0.005-80 ug/ml, HRP goat anti-human Fc, OD650; remark: listed apart in the source
[9] = molecular target: human C1q (sigma Cat #C1740) (human, UniProt P02745 23-245; P02746 28-253; P02747 29-245); assay: ELISA: plate coated with antibody at 1 ug/ml, human C1q titrated 0.625-40 ug/ml, rabbit anti-human C1q then HRP goat anti-rabbit, OD650
Chain of human C1q (sigma Cat #C1740) (P02745 23-245 limits assumed, chain 1 of 3): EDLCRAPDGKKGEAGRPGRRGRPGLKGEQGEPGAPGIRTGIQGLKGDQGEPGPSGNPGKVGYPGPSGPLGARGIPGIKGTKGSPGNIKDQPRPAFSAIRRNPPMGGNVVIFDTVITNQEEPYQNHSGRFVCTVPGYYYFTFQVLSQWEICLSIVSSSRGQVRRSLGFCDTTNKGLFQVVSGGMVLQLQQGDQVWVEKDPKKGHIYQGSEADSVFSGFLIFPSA
Chain of human C1q (sigma Cat #C1740) (P02746 28-253 limits assumed, chain 2 of 3): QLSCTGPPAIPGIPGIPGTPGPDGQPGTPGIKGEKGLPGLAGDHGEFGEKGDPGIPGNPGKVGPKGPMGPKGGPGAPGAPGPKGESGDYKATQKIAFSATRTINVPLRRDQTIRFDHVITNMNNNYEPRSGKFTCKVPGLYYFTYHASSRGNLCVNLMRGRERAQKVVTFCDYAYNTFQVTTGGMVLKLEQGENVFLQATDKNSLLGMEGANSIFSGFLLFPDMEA
Chain of human C1q (sigma Cat #C1740) (P02747 29-245 limits assumed, chain 3 of 3): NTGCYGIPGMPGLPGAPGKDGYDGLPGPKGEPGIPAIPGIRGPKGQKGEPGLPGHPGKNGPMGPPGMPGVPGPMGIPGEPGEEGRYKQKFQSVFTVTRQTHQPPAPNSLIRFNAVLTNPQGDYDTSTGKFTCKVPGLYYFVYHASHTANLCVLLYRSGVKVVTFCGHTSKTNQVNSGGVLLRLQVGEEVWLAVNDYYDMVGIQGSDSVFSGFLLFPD
Method: Subsequently the plates were washed and blocked with ELISA blocking buffer (PBS containing 1% BSA). […] A slow kinetic substrate solution of tetramethylbenzidine (TMB) was added and the optical density (OD) of the color was measured at 650 nm. The data representing detectable binding of antibodies over the range of test concentrations was analyzed by one-site binding nonlinear regression analysis using GraphPad Prism software.

T5 sequence (P08637 17-208): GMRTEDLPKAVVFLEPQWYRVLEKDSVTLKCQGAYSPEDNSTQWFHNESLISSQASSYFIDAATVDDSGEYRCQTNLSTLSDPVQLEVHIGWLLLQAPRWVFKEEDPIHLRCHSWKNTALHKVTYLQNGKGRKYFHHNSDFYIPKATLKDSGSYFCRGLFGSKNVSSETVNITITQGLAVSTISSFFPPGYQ
T4 sequence (P12314 16-292): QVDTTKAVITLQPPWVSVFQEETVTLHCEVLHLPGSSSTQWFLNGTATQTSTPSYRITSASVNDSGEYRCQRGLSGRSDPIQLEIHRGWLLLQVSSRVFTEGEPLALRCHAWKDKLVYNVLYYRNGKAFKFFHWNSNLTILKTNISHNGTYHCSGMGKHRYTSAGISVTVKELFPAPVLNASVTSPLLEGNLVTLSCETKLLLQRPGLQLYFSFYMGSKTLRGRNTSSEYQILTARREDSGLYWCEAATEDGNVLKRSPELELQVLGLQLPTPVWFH
T3 sequence (P55899 24-297 limits assumed, chain 1 of 2): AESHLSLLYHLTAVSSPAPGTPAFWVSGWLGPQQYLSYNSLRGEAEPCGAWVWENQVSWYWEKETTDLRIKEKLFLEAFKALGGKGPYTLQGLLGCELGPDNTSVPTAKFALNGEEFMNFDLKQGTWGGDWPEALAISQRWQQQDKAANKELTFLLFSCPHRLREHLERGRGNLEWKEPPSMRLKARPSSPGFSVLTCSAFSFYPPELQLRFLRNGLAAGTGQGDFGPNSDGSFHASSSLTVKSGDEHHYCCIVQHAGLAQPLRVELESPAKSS
T3 sequence (P61769 21-119 limits assumed, chain 2 of 2): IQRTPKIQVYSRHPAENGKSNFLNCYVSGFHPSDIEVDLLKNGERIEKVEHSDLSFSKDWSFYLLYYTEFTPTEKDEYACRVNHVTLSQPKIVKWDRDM

| Binder | EC50 (read off the curve) [2] [µg/mL] | binding result [4] | EC50 (read off the curve) [6] [nM] | binding result [7] | binding result [9] | other results |
| --- | --- | --- | --- | --- | --- | --- |
| Anti-EGFR Ab No. 3 Wild Type (antibody, human IgG1, human IgG1 constant region; also called Anti-EGFR Mab No. 3; anti-EGFR mAb No. 3) heavy: not shown light: DIQMTQSPSSLSASVGDRVTITCRSSQNIVHSNGNTYLDWYQQTPGKAPKLLIYKVSNRFSGVPSRFSGSGSGTDFTFTISSLQPEDIATYYCFQYSHVPWTFGQGTKLQITREVAAPSVFIFPPSDEQLKSGTASVVCLLNNFYPREAKVQWKVDNALQSGNSQESVTEQDSKDSTYSLSSTLTLSKADYEKHKVYACEVTHQGLSSPVTKSFNRGEC | ~0.05 |  |  |  |  | binding result [1]: binds; EC50 (read off the curve) [3]: ~2 µg/mL |
| Anti-EGFR Ab No. 3 L234A, L235A, L328C (antibody, human IgG1, L234A L235A, Fc variant; wild-type light chain, this heavy chain reads VDKRV where the wild type reads VDKKV; also called Anti-EGFR Mab No. 3 triple mutant; triple mutation L234A, L235A, and L328C) heavy: QVQLQQSGAEVKKPGSSVKVSCKASGYTFTNYYIYWVRQAPGQGLEWIGGINPTSGGSNFNEKFKTRVTITADESSTTAYMELSSLRSEDTAFYFCTRQGLWFDSDGRGFDFWGQGTTVTVSSASTKGPSVFPLAPSSKSTSGGTAALGCLVKDYFPEPVTVSWNSGALTSGVHTFPAVLQSSGLYSLSSVVTVPSSSLGTQTYICNVNHKPSNTKVDKRVEPKSCDKTHTCPPCPAPEAAGGPSVFLFPPKPKDTLMISRTPEVTCVVVDVSHEDPEVKFNWYVDGVEVHNAKTKPREEQYNSTYRVVSVLTVLHQDWLNGKEYKCKVSNKACPAPIEKTISKAKGQPREPQVYTLPPSREEMTKNQVSLTCLVKGFYPSDIAVEWESNGQPENNYKTTPPVLDSDGSFFLYSKLTVDKSRWQQGNVFSCSVMHEALHNHYTQKSLSLSPGK light: DIQMTQSPSSLSASVGDRVTITCRSSQNIVHSNGNTYLDWYQQTPGKAPKLLIYKVSNRFSGVPSRFSGSGSGTDFTFTISSLQPEDIATYYCFQYSHVPWTFGQGTKLQITREVAAPSVFIFPPSDEQLKSGTASVVCLLNNFYPREAKVQWKVDNALQSGNSQESVTEQDSKDSTYSLSSTLTLSKADYEKHKVYACEVTHQGLSSPVTKSFNRGEC |  |  |  |  |  | binding result [3]: no binding (tested: 80 ug/mL) |
| Anti-EGFR Ab No. 3 L328C (antibody, human IgG1, Fc variant; wild-type light chain, this heavy chain reads VDKRV where the wild type reads VDKKV; also called Anti-EGFR Mab No. 3 single mutant; single mutation L328C) heavy: not shown light: DIQMTQSPSSLSASVGDRVTITCRSSQNIVHSNGNTYLDWYQQTPGKAPKLLIYKVSNRFSGVPSRFSGSGSGTDFTFTISSLQPEDIATYYCFQYSHVPWTFGQGTKLQITREVAAPSVFIFPPSDEQLKSGTASVVCLLNNFYPREAKVQWKVDNALQSGNSQESVTEQDSKDSTYSLSSTLTLSKADYEKHKVYACEVTHQGLSSPVTKSFNRGEC | ~0.1 |  |  |  |  |  |
| Anti-EGFR Ab No. 3 L234A, L235A (antibody, human IgG1, L234A L235A, Fc variant; wild-type light chain; also called Anti-EGFR Mab No. 3 double mutant; double mutation L234A and L235A) heavy: not shown light: DIQMTQSPSSLSASVGDRVTITCRSSQNIVHSNGNTYLDWYQQTPGKAPKLLIYKVSNRFSGVPSRFSGSGSGTDFTFTISSLQPEDIATYYCFQYSHVPWTFGQGTKLQITREVAAPSVFIFPPSDEQLKSGTASVVCLLNNFYPREAKVQWKVDNALQSGNSQESVTEQDSKDSTYSLSSTLTLSKADYEKHKVYACEVTHQGLSSPVTKSFNRGEC | ~4 |  |  |  |  | binding result [1]: binds |
| Anti-Trop2 Ab Wild Type (antibody, human IgG1, kappa, human IgG1 constant region; also called Anti-Trop2 Mab; anti-TROP2 mAb) heavy: not shown light: DIQLTQSPSSLSASVGDRVSITCKASQDVSIAVAWYQQKPGKAPKLLIYSASYRYTGVPDRFSGSGSGTDFTLTISSLQPEDFAVYYCQQHYITPLTFGAGTKVEIKRTVAAPSVFIFPPSDEQLKSGTASVVCLLNNFYPREAKVQWKVDNALQSGNSQESVTEQDSKDSTYSLSSTLTLSKADYEKHKVYACEVTHQGLSSPVTKSFNRGEC |  | binds | ~0.06 | binds | binds | EC50 (read off the curve) [5]: ~0.08 µg/mL; EC50 (read off the curve) [8]: ~2 µg/mL |
| Anti-Trop2 Ab L234A, L235A, L328C (antibody, human IgG1, kappa, L234A L235A, Fc variant; wild-type light chain; also called Anti-Trop2 Mab triple mutant; triple mutation L234A, L235A, and L328C) heavy: QVQLQQSGSELKKPGASVKVSCKASGYTFTNYGMNWVKQAPGQGLKWMGWINTYTGEPTYTDDFKGRFAFSLDTSVSTAYLQISSLKADDTAVYFCARGGFGSSYWYFDVWGQGSLVTVSSASTKGPSVFPLAPSSKSTSGGTAALGCLVKDYFPEPVTVSWNSGALTSGVHTFPAVLQSSGLYSLSSVVTVPSSSLGTQTYICNVNHKPSNTKVDKRVEPKSCDKTHTCPPCPAPEAAGGPSVFLFPPKPKDTLMISRTPEVTCVVVDVSHEDPEVKFNWYVDGVEVHNAKTKPREEQYNSTYRVVSVLTVLHQDWLNGKEYKCKVSNKACPAPIEKTISKAKGQPREPQVYTLPPSREEMTKNQVSLTCLVKGFYPSDIAVEWESNGQPENNYKTTPPVLDSDGSFFLYSKLTVDKSRWQQGNVFSCSVMHEALHNHYTQKSLSLSPGK light: DIQLTQSPSSLSASVGDRVSITCKASQDVSIAVAWYQQKPGKAPKLLIYSASYRYTGVPDRFSGSGSGTDFTLTISSLQPEDFAVYYCQQHYITPLTFGAGTKVEIKRTVAAPSVFIFPPSDEQLKSGTASVVCLLNNFYPREAKVQWKVDNALQSGNSQESVTEQDSKDSTYSLSSTLTLSKADYEKHKVYACEVTHQGLSSPVTKSFNRGEC |  | binds | ~0.06 | binds | binds | binding result [5]: no binding (tested: 30 ug/ml); binding result [8]: no binding (tested: 80 ug/ml) |
| Anti-Trop2 Ab L328C (antibody, human IgG1, kappa, Fc variant; wild-type light chain; also called Anti-Trop2 Mab single mutant; single mutation L328C) heavy: not shown light: DIQLTQSPSSLSASVGDRVSITCKASQDVSIAVAWYQQKPGKAPKLLIYSASYRYTGVPDRFSGSGSGTDFTLTISSLQPEDFAVYYCQQHYITPLTFGAGTKVEIKRTVAAPSVFIFPPSDEQLKSGTASVVCLLNNFYPREAKVQWKVDNALQSGNSQESVTEQDSKDSTYSLSSTLTLSKADYEKHKVYACEVTHQGLSSPVTKSFNRGEC |  | binds | ~0.06 | binds | binds | EC50 (read off the curve) [5]: ~0.2 µg/mL |
| Anti-Trop2 Ab L234A, L235A (antibody, human IgG1, kappa, L234A L235A, Fc variant; wild-type light chain; also called Anti-Trop2 Mab double mutant; double mutation L234A and L235A) heavy: not shown light: DIQLTQSPSSLSASVGDRVSITCKASQDVSIAVAWYQQKPGKAPKLLIYSASYRYTGVPDRFSGSGSGTDFTLTISSLQPEDFAVYYCQQHYITPLTFGAGTKVEIKRTVAAPSVFIFPPSDEQLKSGTASVVCLLNNFYPREAKVQWKVDNALQSGNSQESVTEQDSKDSTYSLSSTLTLSKADYEKHKVYACEVTHQGLSSPVTKSFNRGEC |  |  | ~0.06 | binds | binds | EC50 (read off the curve) [4]: ~1 µg/mL; binding result [5]: binds |
